# Data reported in patent publication US20250304679A1 (LTZ THERAPEUTICS, published 2025).
# Residue numbers refer to the chain shown, from its start.
# T1: antigen on malignant B cell lines (BJAB, Daudi, SUDHL-4, Nalm-6) bound by Mosunetuzumab, not named in the …
# T1 chain: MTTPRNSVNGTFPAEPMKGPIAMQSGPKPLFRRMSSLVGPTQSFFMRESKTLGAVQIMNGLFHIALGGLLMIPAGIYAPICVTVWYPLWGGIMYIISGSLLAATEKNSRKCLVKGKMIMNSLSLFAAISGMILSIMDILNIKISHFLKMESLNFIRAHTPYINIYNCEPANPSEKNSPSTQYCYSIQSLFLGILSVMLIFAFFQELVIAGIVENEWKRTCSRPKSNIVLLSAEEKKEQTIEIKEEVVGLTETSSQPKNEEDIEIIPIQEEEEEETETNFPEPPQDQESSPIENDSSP
# T2: CD79b on malignant B cell lines (BJAB, Daudi, SUDHL-4, Nalm-6) (UniProt P40259 29-229, limits assumed)
# T2 construct: whole, on cells; also called malignant B cells
# T2 sequence (looked up): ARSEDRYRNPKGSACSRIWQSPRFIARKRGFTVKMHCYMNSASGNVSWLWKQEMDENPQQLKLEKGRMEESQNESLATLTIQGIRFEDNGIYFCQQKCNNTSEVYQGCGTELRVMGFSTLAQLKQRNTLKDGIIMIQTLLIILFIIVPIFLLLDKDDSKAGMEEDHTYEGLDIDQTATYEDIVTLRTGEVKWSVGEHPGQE
# B1: 22D10/msnCD3 (bispecific antibody, human IgG1, kappa, N297G)
# light: ALVMTQTPSSVSAAVGGTVTINCRASEDIERYLAWYQQKPGQRPKLLIYGASTLASGVPSRFKGSGSGTEYTLTISGVQPDDAATYYCHQGDSSRNVVNVFGGGTEVVVKRTVAAPSVFIFPPSDEQLKSGTASVVCLLNNFYPREAKVQWKVDNALQSGNSQESVTEQDSKDSTYSLSSTLTLSKADYEKHKVYACEVTHQGLSSPVTKSFNRGEC
# heavy: QSVEESGGRLVTPGTPLTLTCTASGFTINDYHMNWVRQAPGKGLEWIGIISSNGDTYYASWAKGRFTISRTSTTVDLKMTSLTTEDTATYFCARDDRDRSYAFDPWGPGTLVTVSSASTKGPSVFPLAPSSKSTSGGTAALGCLVKDYFPEPVTVSWSSGALTSGVHTFPAVLQSSGLYSLSSVVTVPSSSLGTQTYICNVNHKPSNTKVDKKVEPKSCDKTHTCPPCPAPELLGGPSVFLFPPKPKDTLMISRTPEVTCVVVDVSHEDPEVKFNWYVDGVEVHNAKTKPREEQYGSTYRVVSVLTVLHQDWLNGKEYKCKVSNKALPAPIEKTISKAKGQPREPQVYTLPPSRDELTKNQVSLSCAVKGFYPSDIAVEWESNGQPENNYKTTPPVLDSDGSFFLVSKLTVDKSRWQQGNVFSCSVMHEALHNRFTQKSLSLSPGK
# chain: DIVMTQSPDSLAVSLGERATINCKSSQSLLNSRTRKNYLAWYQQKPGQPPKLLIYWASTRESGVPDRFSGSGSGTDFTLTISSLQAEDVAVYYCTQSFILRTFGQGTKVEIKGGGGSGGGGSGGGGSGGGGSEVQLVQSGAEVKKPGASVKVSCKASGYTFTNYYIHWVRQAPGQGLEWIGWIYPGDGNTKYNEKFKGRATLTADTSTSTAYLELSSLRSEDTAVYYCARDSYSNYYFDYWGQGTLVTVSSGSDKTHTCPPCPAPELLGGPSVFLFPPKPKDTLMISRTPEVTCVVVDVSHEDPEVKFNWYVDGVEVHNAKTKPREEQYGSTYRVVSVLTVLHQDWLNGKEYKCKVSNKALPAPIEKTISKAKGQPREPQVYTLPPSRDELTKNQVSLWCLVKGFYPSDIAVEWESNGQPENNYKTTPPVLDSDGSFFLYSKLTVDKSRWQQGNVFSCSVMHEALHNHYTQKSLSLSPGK
# notes: also called CD79b/CD3 bispecific antibody; chCD79b×msnCD3
# B2: 44G2/msnCD3 (bispecific antibody, human IgG1, kappa, N297G)
# light: DLVMTQTPSSVSAAVGGTVSINCRASEDIENYLAWYQQKPGQPPKLLIYRASTLSSGVSSRFSGSGSGTEFTLTISGVQPDDAATYYCQQGYRNSNVDNPFGGGTEMVVKRTVAAPSVFIFPPSDEQLKSGTASVVCLLNNFYPREAKVQWKVDNALQSGNSQESVTEQDSKDSTYSLSSTLTLSKADYEKHKVYACEVTHQGLSSPVTKSFNRGEC
# heavy: QSVRETGGGLVQPGGSLKLSCKASGFTINIDYWISWVRQAPGKGLEWIGIIDPGDGTTYFAIWVNGRFTISFDNTQNTVDLQMNSLTAADTATYFCVREFSASAYQYDLWGPGTLVTVSSASTKGPSVFPLAPSSKSTSGGTAALGCLVKDYFPEPVTVSWSSGALTSGVHTFPAVLQSSGLYSLSSVVTVPSSSLGTQTYICNVNHKPSNTKVDKKVEPKSCDKTHTCPPCPAPELLGGPSVFLFPPKPKDTLMISRTPEVTCVVVDVSHEDPEVKFNWYVDGVEVHNAKTKPREEQYGSTYRVVSVLTVLHQDWLNGKEYKCKVSNKALPAPIEKTISKAKGQPREPQVYTLPPSRDELTKNQVSLSCAVKGFYPSDIAVEWESNGQPENNYKTTPPVLDSDGSFFLVSKLTVDKSRWQQGNVFSCSVMHEALHNRFTQKSLSLSPGK
# chain: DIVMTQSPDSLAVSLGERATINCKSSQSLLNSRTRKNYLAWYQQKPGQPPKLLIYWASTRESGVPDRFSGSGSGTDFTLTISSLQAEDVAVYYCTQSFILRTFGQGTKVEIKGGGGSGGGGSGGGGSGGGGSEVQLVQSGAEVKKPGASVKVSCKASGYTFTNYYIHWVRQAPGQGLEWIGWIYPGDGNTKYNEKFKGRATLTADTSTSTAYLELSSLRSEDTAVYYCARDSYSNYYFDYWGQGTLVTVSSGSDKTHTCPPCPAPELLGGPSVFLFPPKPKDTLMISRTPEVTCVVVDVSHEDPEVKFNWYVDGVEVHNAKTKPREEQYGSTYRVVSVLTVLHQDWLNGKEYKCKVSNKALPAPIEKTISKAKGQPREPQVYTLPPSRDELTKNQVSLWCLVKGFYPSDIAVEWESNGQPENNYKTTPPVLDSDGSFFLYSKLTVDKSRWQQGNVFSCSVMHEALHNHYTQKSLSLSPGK
# notes: as for B1
# B3: 48H10/msnCD3 (bispecific antibody, human IgG1, kappa, N297G)
# light: B2 light with D1A, R24Q, N31S, A34T, I48M, G64A, S95K, N96D, M107V
# heavy: B2 heavy with R4K, K18T, F72T, T75A, V97A
# chain: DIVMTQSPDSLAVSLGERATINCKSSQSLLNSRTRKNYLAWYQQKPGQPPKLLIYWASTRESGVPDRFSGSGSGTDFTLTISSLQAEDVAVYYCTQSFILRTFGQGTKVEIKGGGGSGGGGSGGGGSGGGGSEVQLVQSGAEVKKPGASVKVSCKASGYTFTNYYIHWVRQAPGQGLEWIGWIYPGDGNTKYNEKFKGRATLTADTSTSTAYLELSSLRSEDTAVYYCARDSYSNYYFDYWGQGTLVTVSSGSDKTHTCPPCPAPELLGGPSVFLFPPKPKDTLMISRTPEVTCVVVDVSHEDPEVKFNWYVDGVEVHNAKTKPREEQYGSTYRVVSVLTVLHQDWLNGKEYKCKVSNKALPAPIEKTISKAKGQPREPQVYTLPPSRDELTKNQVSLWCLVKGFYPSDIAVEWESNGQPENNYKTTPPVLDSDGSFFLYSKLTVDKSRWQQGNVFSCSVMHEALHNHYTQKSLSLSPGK
# notes: as for B1
# B4: Mosunetuzumab (bispecific antibody)
# chain 1: not shown
# chain 2: DIQMTQSPSSLSASVGDRVTITCRASSSVSYMHWYQQKPGKAPKPLIYAPSNLASGVPSRFSGSGSGTDFTLTISSLQPEDFATYYCQQWSFNPPTFGQGTKVEIKRTVAAPSVFIFPPSDEQLKSGTASVVCLLNNFYPREAKVQWKVDNALQSGNSQESVTEQDSKDSTYSLSSTLTLSKADYEKHKVYACEVTHQGLSSPVTKSFNRGEC
# chain 3: EVQLVQSGAEVKKPGASVKVSCKASGYTFTNYYIHWVRQAPGQGLEWIGWIYPGDGNTKYNEKFKGRATLTADTSTSTAYLELSSLRSEDTAVYYCARDSYSNYYFDYWGQGTLVTVSSASTKGPSVFPLAPSSKSTSGGTAALGCLVKDYFPEPVTVSWNSGALTSGVHTFPAVLQSSGLYSLSSVVTVPSSSLGTQTYICNVNHKPSNTKVDKKVEPKSCDKTHTCPPCPAPELLGGPSVFLFPPKPKDTLMISRTPEVTCVVVDVSHEDPEVKFNWYVDGVEVHNAKTKPREEQYGSTYRVVSVLTVLHQDWLNGKEYKCKVSNKALPAPIEKTISKAKGQPREPQVYTLPPSREEMTKNQVSLSCAVKGFYPSDIAVEWESNGQPENNYKTTPPVLDSDGSFFLVSKLTVDKSRWQQGNVFSCSVMHEALHNHYTQKSLSLSPGK
# chain 4: not shown
# B5: Pola/msnCD3 (bispecific antibody, human IgG1, kappa, N297G)
# light: DIQLTQSPSSLSASVGDRVTITCKASQSVDYEGDSFLNWYQQKPGKAPKLLIYAASNLESGVPSRFSGSGSGTDFTLTISSLQPEDFATYYCQQSNEDPLTFGQGTKVEIKRTVAAPSVFIFPPSDEQLKSGTASVVCLLNNFYPREAKVQWKVDNALQSGNSQESVTEQDSKDSTYSLSSTLTLSKADYEKHKVYACEVTHQGLSSPVTKSFNRGEC
# heavy: EVQLVESGGGLVQPGGSLRLSCAASGYTFSSYWIEWVRQAPGKGLEWIGEILPGGGDTNYNEIFKGRATFSADTSKNTAYLQMNSLRAEDTAVYYCTRRVPIRLDYWGQGTLVTVSSASTKGPSVFPLAPSSKSTSGGTAALGCLVKDYFPEPVTVSWSSGALTSGVHTFPAVLQSSGLYSLSSVVTVPSSSLGTQTYICNVNHKPSNTKVDKKVEPKSCDKTHTCPPCPAPELLGGPSVFLFPPKPKDTLMISRTPEVTCVVVDVSHEDPEVKFNWYVDGVEVHNAKTKPREEQYGSTYRVVSVLTVLHQDWLNGKEYKCKVSNKALPAPIEKTISKAKGQPREPQVYTLPPSRDELTKNQVSLSCAVKGFYPSDIAVEWESNGQPENNYKTTPPVLDSDGSFFLVSKLTVDKSRWQQGNVFSCSVMHEALHNRFTQKSLSLSPGK
# chain: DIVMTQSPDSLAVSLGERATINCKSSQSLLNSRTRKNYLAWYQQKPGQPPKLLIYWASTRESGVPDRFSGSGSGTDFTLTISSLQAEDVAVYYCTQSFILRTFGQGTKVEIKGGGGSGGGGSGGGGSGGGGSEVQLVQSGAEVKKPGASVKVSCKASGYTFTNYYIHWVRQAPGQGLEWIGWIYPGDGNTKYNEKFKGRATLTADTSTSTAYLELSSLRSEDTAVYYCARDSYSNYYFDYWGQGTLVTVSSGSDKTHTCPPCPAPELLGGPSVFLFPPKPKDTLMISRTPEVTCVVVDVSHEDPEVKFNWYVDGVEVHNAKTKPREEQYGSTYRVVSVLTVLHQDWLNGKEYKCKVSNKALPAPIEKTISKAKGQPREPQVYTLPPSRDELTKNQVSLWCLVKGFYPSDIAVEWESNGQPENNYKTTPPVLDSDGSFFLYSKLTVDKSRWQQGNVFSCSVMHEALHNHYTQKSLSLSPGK
# notes: as for B1
# B6: 57B9/msnCD3 (bispecific antibody, human IgG1, kappa, N297G)
# light: ALVMTQTPSSVSADVGGTVSINCQASEDIESYLAWYQQKPGQPPKLLIYFTSNLASGVPSRFKGSGSGTEYTLTISGVQPDDAATYYCQQGYRNSDVHNPFGGGTEVVVKRTVAAPSVFIFPPSDEQLKSGTASVVCLLNNFYPREAKVQWKVDNALQSGNSQESVTEQDSKDSTYSLSSTLTLSKADYEKHKVYACEVTHQGLSSPVTKSFNRGEC
# heavy: QSVRETGGGLVQPGGSLTLSCEASEFTINIDYWISWVRQAPGKGLEWIGIIDPGDGTTYFAIWVNGRFTITRNTNLNTVDLKMTSLTEADTATYFCAREVSASAYQYDLWGPGTLVTVSSASTKGPSVFPLAPSSKSTSGGTAALGCLVKDYFPEPVTVSWSSGALTSGVHTFPAVLQSSGLYSLSSVVTVPSSSLGTQTYICNVNHKPSNTKVDKKVEPKSCDKTHTCPPCPAPELLGGPSVFLFPPKPKDTLMISRTPEVTCVVVDVSHEDPEVKFNWYVDGVEVHNAKTKPREEQYGSTYRVVSVLTVLHQDWLNGKEYKCKVSNKALPAPIEKTISKAKGQPREPQVYTLPPSRDELTKNQVSLSCAVKGFYPSDIAVEWESNGQPENNYKTTPPVLDSDGSFFLVSKLTVDKSRWQQGNVFSCSVMHEALHNRFTQKSLSLSPGK
# chain: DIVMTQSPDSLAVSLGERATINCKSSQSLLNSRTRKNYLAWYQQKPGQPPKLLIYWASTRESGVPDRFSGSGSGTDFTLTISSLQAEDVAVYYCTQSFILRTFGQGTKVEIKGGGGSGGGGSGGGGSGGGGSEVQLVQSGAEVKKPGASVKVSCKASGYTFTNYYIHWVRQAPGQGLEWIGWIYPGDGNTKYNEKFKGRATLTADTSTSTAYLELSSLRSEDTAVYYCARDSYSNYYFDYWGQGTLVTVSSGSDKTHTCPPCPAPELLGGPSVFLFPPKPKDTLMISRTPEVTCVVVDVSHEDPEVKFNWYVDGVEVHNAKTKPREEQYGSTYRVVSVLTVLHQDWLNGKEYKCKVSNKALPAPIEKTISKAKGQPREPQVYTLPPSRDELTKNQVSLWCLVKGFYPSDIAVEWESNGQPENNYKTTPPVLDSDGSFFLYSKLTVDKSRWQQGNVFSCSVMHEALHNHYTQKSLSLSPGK
# notes: also called 57B9/mscCD3; CD79b/CD3 bispecific antibody
# Target: CD3 on Jurkat-Lucia NFAT reporter T lymphocytes (UniProt P07766 23-207)
# Sequence (P07766 23-207): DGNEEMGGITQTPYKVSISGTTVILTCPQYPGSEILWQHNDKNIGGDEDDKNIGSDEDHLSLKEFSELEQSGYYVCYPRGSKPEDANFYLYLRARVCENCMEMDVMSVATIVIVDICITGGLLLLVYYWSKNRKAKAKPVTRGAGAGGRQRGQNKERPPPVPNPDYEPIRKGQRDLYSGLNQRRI
# Test: cell-based or functional assay
row,Binder,"T cell activation effect, NFAT-Luc reporter, EC50 nM [nM]"
1,B1,866
2,B2,1.12
3,B3,1.91
4,B4,2.06
5,B5,~15.4
6,B6,~24

# Target: T1, antigen on malignant B cell lines …
# Test: flow cytometry (MFI of PE) on BJAB cells
# Description: (§1) To evaluated the affinities of chCD79b×msnCD3 antibodies to malignant B cell lines. BJAB, Daudi, SUDHL-4 and Nalm-6 cells were purchased from ATCC. For each different cell line, 5×10⁴ cells were mixed with serially diluted antibodies Pola/msnCD3, 22D10/msnCD3, 44G2/msnCD3, 48H10/msnCD3 and 57B9/msnCD3, Mosunetuzumab, and negative control Human IgG Isotype Control (Invitrogen Catalog #02-7102) and incubated on ice for 30 minutes. After incubation, cells were washed twice and detected with an anti-human IgG PE secondary antibody (ebioscience. Cat: 12-4998-82). For analysis, the mean fluorescence intensity (MFI of PE) of each antibody was determined and plotted using GraphPad prism software (version 10.10.1; GraphPad Software Inc).
row,Binder,EC50 [nM]
1,B4,50.4

# Target: T2, CD79b on malignant B cell lines (BJAB, …)
# Test: flow cytometry (MFI of PE) on BJAB cells
# Description: as §1
row,Binder,EC50 [nM]
1,B1,1.24
2,B2,4.33
3,B3,2.88
4,B5,18.9
5,B6,15.1

# Target: T1, antigen on malignant B cell lines …
# Test: flow cytometry (MFI of PE) on Daudi cells
# Description: as §1
row,Binder,EC50 [nM]
1,B4,13.7

# Target: T2, CD79b on malignant B cell lines (BJAB, …)
# Test: flow cytometry (MFI of PE) on Daudi cells
# Description: as §1
row,Binder,EC50 [nM]
1,B1,17.1
2,B2,0.614
3,B3,1.28
4,B5,4.04
5,B6,4.59

# Target: T2, CD79b on malignant B cell lines (BJAB, …)
# Test: flow cytometry (MFI of PE) on Nalm-6 cells
# Description: as §1
row,Binder,EC50 [nM]
1,B2,9.53
2,B3,19
3,B6,9510

# Target: T1, antigen on malignant B cell lines …
# Test: flow cytometry (MFI of PE) on SUDHL-4 cells
# Description: as §1
row,Binder,EC50 [nM]
1,B4,30.6

# Target: T2, CD79b on malignant B cell lines (BJAB, …)
# Test: flow cytometry (MFI of PE) on SUDHL-4 cells
# Description: as §1
row,Binder,EC50 [nM]
1,B2,1.73
2,B3,3.23
3,B5,15.5
4,B6,11.9
